Patent publication US6919086B1, “Graminae pollen allergen mutants for specific immunotherapy, and production and use of the same” (Merck Patent Gesellschaft mit, priority 1997, dated 2005)
Like-named read-outs stand apart in the source and are kept apart here. Each block holds one molecule with its values, some of them ahead of it.

Tests used:
[1] = system: IgE antibodies of allergic patients; experiment: EAST inhibition test (IgE reactivity / allergenicity); type: binding, human; conditions: for IC50: read-out: Inhibition value 50% (concentration of the inhibitor at 50% inhibition); for Allergenic potency (Prel) 25%: relative to native Phl p 5b at 25% inhibition; for Allergenic potency (Prel) 50%: relative to native Phl p 5b at 50% inhibition; for EAST inhibition curve / inhibitory effect (in words): serum pool Bor 18/100 (20 donors), FIG. 1; for Allergenicity from EAST inhibition curves (in words): serum pool We 6/97 and individual sera II3, II12, II17, FIGS. 2-5
Protocol: The effects of the induced mutations on the allergenicity, i.e. the ability to bind to the IgE antibodies of allergic patients, of the modified recombinant allergens is determined qualitatively and quantitatively by means of the EAST inhibition test. […] The extent of the immunochemical relatedness (cross reactivity) can also be quantified. This EAST inhibition test only takes the reaction with IgE antibodies into account.
The binding of the allergens by the IgE antibodies is the basic prerequisite for the allergen-specific activation of the effector cells (mast cells, basophils, inter alia) in type I allergy. The allergen-specific inhibition of the enzyme/allergen sorbent test (EAST) is the best means for qualitatively and quantitatively recording the binding of the allergens to IgE anti-bodies. The EAST inhibition test is carried out as follows. Microtitre plates are coated with allergen (natural or recombinant Ph1 p 5 or Ph1 p 5b) (1 μg/ml). After the unbound allergen molecules have been removed by washing, non-specific plastic binding sites are blocked with bovine serum albumin (0.5%). […] from allergic patients, as a representative pool of 10-30 donors or as an individual serum, is incubated, in a suitable dilution, with the allergen-coated microtritre plates. The bound allergen-specific IgE antibodies are quantified using enzyme-coupled anti-IgE antibodies (e.g. alk. phosphatase-a-IgE antibodies). This binding is inhibited by soluble allergen or the substance to be tested (allergen mutants) in dependence on the concentration. The inhibition curve obtained with the purified natural allergen Ph1 p 5b is used as the reference.

[2] = system: Phl p 5b-reactive T cell lines (TCLs) from allergic patients; experiment: Proliferative reaction of Phl p 5b-reactive oligoclonal T cell lines ([3H]-thymidine incorporation); type: cell-based, human; conditions: secondary activator 0.3 μM; for Incorporation of [3H]-thymidine into TCL 5 17.4 (stimulation index class): primary stimulator r Phl p 5; for Incorporation of [3H]-thymidine into TCL 7 19.2 (stimulation index class) / Incorporation of [3H]-thymidine into TCL 8 20.1 (stimulation index class): primary stimulator r Phl p 5b
Protocol: In the second phase, oligoclonal T cell lines, which have been established by repeated stimulation with the relevant allergens, are employed for the testing. Once again, only those modified recombinant allergens which at least give rise to a stimulation index (SI) of 50% of the SI of the wild type are taken into consideration.
40 ml of heparinized blood were obtained from each patient. Peripheral mononuclear cells (PBMC) were then isolated from this blood sample by means of the customary method using density gradient centrifugation. Analogous cell isolations were carried out at a later stage when it was necessary to obtain irradiated autologous antigen-presenting cells (APC) for characterizing the TCL and TCC further. After the PBMC had been counted, TCL which reacted to group 5 allergens in vitro were established as follows and as has already been described in detail elsewhere (Lit. 1): in each well of 24-well microculture plates, from 1.5 to 2.0×10^6 PBMC in 1 ml of culture medium (UltraCulture) were stimulated for 7 days in the added presence of natural Phl p5 allergens (in each case 10 μg/well) which had been purified by immunoaffinity chromatography. A total of from 8 to 10 of these cultures were set up. The isolation of Phl p5 by means of immunoaffinity chromatography has been described in detail (Lit. 2). At the end of the 7 days of culture, IL-2 (from 10 to 20 IU/well) was added to the cell cultures for a further 5 to 7 days. All the individual cultures were then pooled and the T cell blasts were enriched by means of density gradient centrifugation; the TCL which were obtained were then tested in a specific lymphocyte proliferation test (see Lit. 1 as well). For this, 2×10^4/ml TCL blasts were in each case cultured with 5×10^4/ml irradiated autologous APCs in triplicate samples in 96-well microculture plates. 10-20 μg of Phl p5 allergen were added as the specific antigen stimulus. After 56 hours of incubation, ^3H-labelled thymidine (1 μCi/well) was pipetted into the microcultures. After a further 16 hours, the radioactivity which had been incorporated into the proliferating T cell blasts was measured in a beta counter (Matrix 96). The results were calculated, as the arithmetic mean of the multiple samples, in counts per minute (cpm). The criterion for the quality of the TCL was the stimulation index, which was obtained by relating the cpm values with Phl p5 addition to those without Phl p5 addition.
The oligoclonal T cell lines (TCLs) from 8 patients who were allergic to grass pollen (see Ex. 1) were established by repeated activation with natural Ph1 p 5b (a+b) or recombinant rPh1 p 5b or 5a+5b.
The proliferative reaction of these TCLs was tested using the rPh1 p 5b mutants (FIG. 10).

[3] = biological target: IgE antibodies of the allergic patient serum pool We 6/97; experiment: EAST inhibition, serum pool We 6/97
[4] = biological target: IgE antibodies of the allergic patient serum pool Bor 18/100 (20 donors); experiment: EAST inhibition, serum pool Bor 18/100
[5] = biological target: IgE antibodies of the individual allergic patient serum II/3; experiment: EAST inhibition, individual serum II/3
[6] = biological target: IgE antibodies of the individual allergic patient serum II/17; experiment: EAST inhibition, individual serum II/17
[7] = allergic patient serum pool Bor 18/100
[8] = allergic patient serum pool We 6/97
[9] = individual allergic patient serum II/3
[10] = individual allergic patient serum II/12
[11] = individual allergic patient serum II/17

IC50 [1, 7]: 12 nM | IC50 [1, 8]: 120 nM | IC50 [1, 9]: 19 nM | IC50 [1, 10]: 83 nM | IC50 [1, 11]: 2.2 nM | IC50 [3]: 120 nM | allergenic potency (Prel) at 25% inhibition (relative to native Phl p 5b) [3]: 0.415 | allergenic potency (Prel) at 50% inhibition (relative to native Phl p 5b) [3]: 0.051 | inhibition value (inhibitor concentration at 25% inhibition) [3]: 1.2e-09 mol/L | IC50 [4]: 12 nM | allergenic potency (Prel) at 25% inhibition (relative to native Phl p 5b) [4]: 0.739 | allergenic potency (Prel) at 50% inhibition (relative to native Phl p 5b) [4]: 0.349 | inhibition value (inhibitor concentration at 25% inhibition) [4]: 4.5e-10 mol/L | IC50 [5]: 19 nM | allergenic potency (Prel) at 25% inhibition (relative to native Phl p 5b) [5]: 0.595 | allergenic potency (Prel) at 50% inhibition (relative to native Phl p 5b) [5]: 0.314 | inhibition value (inhibitor concentration at 25% inhibition) [5]: 8.6e-10 mol/L | IC50 [6]: 2.2 nM | allergenic potency (Prel) at 25% inhibition (relative to native Phl p 5b) [6]: 0.336 | allergenic potency (Prel) at 50% inhibition (relative to native Phl p 5b) [6]: 0.119 | inhibition value (inhibitor concentration at 25% inhibition) [6]: 6.4e-10 mol/L
B1: rPhl p 5b point mutant PM1 (N32D, D49L, K50A) (protein)
chain: ADAGYAPATPAAAGAAAGKATTEEQKLIEDIDVGFKAAVAAAASVPAALAFKTFEAAFTSSSKAAAAKAPGLVPKLDAAYSVAYKAAVGATPEAKFDSFVASLTEALRVIAGALEVHAVKPVTEEPGMAKIPAGELQIIDKIDAAFKVAATAAATAPADDKFTVFEAAFNKAIKESTGGAYDTYKCIPSLEAAVKQAYAATVAAAPQVKYAVFEAALTKAITAMSEVQKVSQPATGAATVAAGAATTAAGAASGAATVAAGGYKV
Inhibition value 25% (concentration of the inhibitor at 25% inhibition) [1, 7]: 4.5e-10 mol/L | Inhibition value 25% (concentration of the inhibitor at 25% inhibition) [1, 8]: 1.2e-09 mol/L | Inhibition value 25% (concentration of the inhibitor at 25% inhibition) [1, 9]: 8.6e-10 mol/L | Inhibition value 25% (concentration of the inhibitor at 25% inhibition) [1, 10]: 1.3e-09 mol/L | Inhibition value 25% (concentration of the inhibitor at 25% inhibition) [1, 11]: 6.4e-10 mol/L | Allergenic potency (Prel) 25% ([1]; individual serum II/3): 0.5950 | Allergenic potency (Prel) 25% ([1]; individual serum II/12): 0.391 | Allergenic potency (Prel) 25% ([1]; individual serum II/17): 0.336 | Allergenic potency (Prel) 25% ([1]; serum pool Bor 18/100): 0.739 | Allergenic potency (Prel) 25% ([1]; serum pool We 6/97): 0.415 | Allergenic potency (Prel) 50% ([1]; individual serum II/3): 0.3140 | Allergenic potency (Prel) 50% ([1]; individual serum II/12): 0.082 | Allergenic potency (Prel) 50% ([1]; individual serum II/17): 0.1190 | Allergenic potency (Prel) 50% ([1]; serum pool Bor 18/100): 0.3490 | Allergenic potency (Prel) 50% ([1]; serum pool We 6/97): 0.0510 | EAST inhibition curve / inhibitory effect (in words) [1]: exhibits this effect in the higher range to a somewhat greater degree | Allergenicity from EAST inhibition curves (in words) [1]: either no reduction, or only a reduction which is for the most part slight | Incorporation of [3H]-thymidine into TCL 1 Wöl (stimulation index class) ([2]; primary stimulator n Phl p 5): + (1-2 (+)) | Incorporation of [3H]-thymidine into TCL 3 Fre (stimulation index class) ([2]; primary stimulator n Phl p 5): + (1-2 (+)) | Incorporation of [3H]-thymidine into TCL 5 17.4 (stimulation index class) [2]: + (1-2 (+)) | Incorporation of [3H]-thymidine into TCL 6 Mah (stimulation index class) ([2]; primary stimulator r Phl p 5a, r Phl p 5b): ++ (5-10 (++)) | Incorporation of [3H]-thymidine into TCL 7 19.2 (stimulation index class) [2]: +++ (>10 (+++)) | Incorporation of [3H]-thymidine into TCL 8 20.1 (stimulation index class) [2]: +++ (>10 (+++))

IC50 [1, 7]: 4.8 nM | IC50 [1, 8]: 30 nM | IC50 [1, 9]: 15 nM | IC50 [1, 10]: 91 nM | IC50 [1, 11]: 5.5 nM | IC50 [3]: 30 nM | allergenic potency (Prel) at 25% inhibition (relative to native Phl p 5b) [3]: 0.611 | allergenic potency (Prel) at 50% inhibition (relative to native Phl p 5b) [3]: 0.203 | inhibition value (inhibitor concentration at 25% inhibition) [3]: 8.3e-10 mol/L | IC50 [4]: 4.8 nM | allergenic potency (Prel) at 25% inhibition (relative to native Phl p 5b) [4]: 1.64 | allergenic potency (Prel) at 50% inhibition (relative to native Phl p 5b) [4]: 0.864 | inhibition value (inhibitor concentration at 25% inhibition) [4]: 2e-10 mol/L | IC50 [5]: 15 nM | allergenic potency (Prel) at 25% inhibition (relative to native Phl p 5b) [5]: 0.922 | allergenic potency (Prel) at 50% inhibition (relative to native Phl p 5b) [5]: 0.399 | inhibition value (inhibitor concentration at 25% inhibition) [5]: 5.5e-10 mol/L | IC50 [6]: 5.5 nM | allergenic potency (Prel) at 25% inhibition (relative to native Phl p 5b) [6]: 0.855 | allergenic potency (Prel) at 50% inhibition (relative to native Phl p 5b) [6]: 0.468 | inhibition value (inhibitor concentration at 25% inhibition) [6]: 2.5e-10 mol/L
B2: rPhl p 5b point mutant PM3 (A13C) (protein)
chain: ADAGYAPATPAACGAAAGKATTEEQKLIEDINVGFKAAVAAAASVPAADKFKTFEAAFTSSSKAAAAKAPGLVPKLDAAYSVAYKAAVGATPEAKFDSFVASLTEALRVIAGALEVHAVKPVTEEPGMAKIPAGELQIIDKIDAAFKVAATAAATAPADDKFTVFEAAFNKAIKESTGGAYDTYKCIPSLEAAVKQAYAATVAAAPQVKYAVFEAALTKAITAMSEVQKVSQPATGAATVAAGAATTAAGAASGAATVAAGGYKV
Inhibition value 25% (concentration of the inhibitor at 25% inhibition) [1, 7]: 2e-10 mol/L | Inhibition value 25% (concentration of the inhibitor at 25% inhibition) [1, 8]: 8.3e-10 mol/L | Inhibition value 25% (concentration of the inhibitor at 25% inhibition) [1, 9]: 5.5e-10 mol/L | Inhibition value 25% (concentration of the inhibitor at 25% inhibition) [1, 10]: 1.3e-09 mol/L | Inhibition value 25% (concentration of the inhibitor at 25% inhibition) [1, 11]: 2.5e-10 mol/L | Allergenic potency (Prel) 25% ([1]; individual serum II/3): 0.9220 | Allergenic potency (Prel) 25% ([1]; individual serum II/12): 0.389 | Allergenic potency (Prel) 25% ([1]; individual serum II/17): 0.855 | Allergenic potency (Prel) 25% ([1]; serum pool Bor 18/100): 1.641 | Allergenic potency (Prel) 25% ([1]; serum pool We 6/97): 0.611 | Allergenic potency (Prel) 50% ([1]; individual serum II/3): 0.3990 | Allergenic potency (Prel) 50% ([1]; individual serum II/12): 0.075 | Allergenic potency (Prel) 50% ([1]; individual serum II/17): 0.4680 | Allergenic potency (Prel) 50% ([1]; serum pool Bor 18/100): 0.8640 | Allergenic potency (Prel) 50% ([1]; serum pool We 6/97): 0.2030 | EAST inhibition curve / inhibitory effect (in words) [1]: binding curves which are similar to that obtained with natural Ph1 p 5b | Allergenicity from EAST inhibition curves (in words) [1]: either no reduction, or only a reduction which is for the most part slight | Incorporation of [3H]-thymidine into TCL 3 Fre (stimulation index class) ([2]; primary stimulator n Phl p 5): + (1-2 (+)) | Incorporation of [3H]-thymidine into TCL 4 Mer (stimulation index class) ([2]; primary stimulator n Phl p 5): + (1-2 (+)) | Incorporation of [3H]-thymidine into TCL 5 17.4 (stimulation index class) [2]: + (1-2 (+)) | Incorporation of [3H]-thymidine into TCL 7 19.2 (stimulation index class) [2]: +++ (>10 (+++)) | Incorporation of [3H]-thymidine into TCL 8 20.1 (stimulation index class) [2]: + (1-2 (+))
